# According to patent publication US20230407373A1 (priority 2020, published 2023):
# B1: FAM1204 (protein, UniProt Q9NZB2 1-1118, looked up)
# Constitutive coactivator of …: MGVQGFQDYIEKHCPSAVVPVELQKLARGSLVGGGRQRPPQTPLRLLVDADNCLHRLYGGFYTDWVSGGQWNHMLGYLAALAKACFGGNIELFVFFNGALEKARLHEWVKRQGNERQTAQQIVSHVQNKGTPPPKVWFLPPVCMAHCIRLALIRFHVKVAQSIEDHHQEVIGFCRENGFHGLVAYDSDYALCNIPYYFSAHALKLSRNGKSLTTSQYLMHEVAKQLDLNPNRFPIFAALLGNHILPDEDLASFHWSLLGPEHPLASLKVRAHQLVLPPCDVVIKAVADYVRNIQDTSDLDAIAKDVFQHSQSRTDDKVIRFKRAIGYYSATSKPMSFHPPHYLAARPGPFGMPGMVPPHVPPQMLNIPQTSLQAKPVAPQVPSPGGAPGQGPYPYSLSEPAPLTLDTSGKNLTEQNSYSNIPHEGKHTPLYERSSPINPAQSGSPNHVDSAYFPGSSTSSSSDNDEGSGGATNHISGNKIGWEKTGSHSEPQARGDPGDQTKAEGSSTASSGSQLAEGKGSQMGTVQPIPCLLSMPTRNHMDITTPPLPPVAPEVLRVAEHRHKKGLMYPYIFHVLTKGEIKIAVSIEDEANKDLPPAALLYRPVRQYVYGVLFSLAESRKKTERLAFRKNRLPPEFSPVIIKEWAAYKGKSPQTPELVEALAFREWTCPNLKRLWLGKAVEDKNRRMRAFLACMRSDTPAMLNPANVPTHLMVLCCVLRYMVQWPGARILRRQELDAFLAQALSPKLYEPDQLQELKIENLDPRGIQLSALFMSGVDMALFANDACGQPIPWEHCCPWMYFDGKLFQSKLLKASREKTPLIDLCDGQADQAAKVEKMRQSVLEGLSFSRQSHTLPFPPPPALPFYPASAYPRHFGPVPPSQGRGRGFAGVCGFGGPYGETVATGPYRAFRVAAASGHCGAFSGSDSSRTSKSQGGVQPIPSQGGKLEIAGTVVGHWAGSRRGRGGRGPFPLQVVSVGGPARGRPRGVISTPVIRTFGRGGRYYGRGYKNQAAIQGRPPYAASAEEVAKELKSKSGESKSSAMSSDGSLAENGVMAEEKPAPQMNGSTGDARAPSHSESALNNDSKTCNTNPHLNALSTDSACRREAALEAAVLNKEE
# B2: SRSF9 (protein, UniProt Q13242 1-221, looked up)
# Serine/arginine-rich splicing …: MSGWADERGGEGDGRIYVGNLPTDVREKDLEDLFYKYGRIREIELKNRHGLVPFAFVRFEDPRDAEDAIYGRNGYDYGQCRLRVEFPRTYGGRGGWPRGGRNGPPTRRSDFRVLVSGLPPSGSWQDLKDHMREAGDVCYADVQKDGVGMVEYLRKEDMEYALRKLDDTKFRSHEGETSYIRVYPERSTSYGYSRSRSGSRGRDSPYQSRGSPHYFSPFRPY
# B3: MARS2 (protein, UniProt Q96GW9 30-593, looked up)
# Methionine--tRNA ligase, …: SSGSLSAGDDACDVRAYFTTPIFYVNAAPHIGHLYSALLADALCRHRRLRGPSTAATRFSTGTDEHGLKIQQAAATAGLAPTELCDRVSEQFQQLFQEAGISCTDFIRTTEARHRVAVQHFWGVLKSRGLLYKGVYEGWYCASDECFLPEAKVTQQPGPSGDSFPVSLESGHPVSWTKEENYIFRLSQFRKPLQRWLRGNPQAITPEPFHHVVLQWLDEELPDLSVSRRSSHLHWGIPVPGDDSQTIYVWLDALVNYLTVIGYPNAEFKSWWPATSHIIGKDILKFHAIYWPAFLLGAGMSPPQRICVHSHWTVCGQKMSKSLGNVVDPRTCLNRYTVDGFRYFLLRQGVPNWDCDYYDEKVVKLLNSELADALGGLLNRCTAKRINPSETYPAFCTTCFPSEPGLVGPSVRAQAEDYALVSAVATLPKQVADHYDNFRIYKALEAVSSCVRQTNGFVQRHAPWKLNWESPVDAPWLGTVLHVALECLRVFGTLLQPVTPSLADKLLSRLGVSASERSLGELYFLPRFYGHPCPFEGRRLGPETGLLFPRLDQSRTWLVKAHRT
# B4: RPUSD3 (protein, UniProt Q6P087 26-351, looked up)
# Mitochondrial mRNA …: LGVRPVPEDAGFGTEARHQRQPRGSCQRSGPLGDQPFAGLLPKNLSREELVDALRAAVVDRKGPLVTLNKPQGLPVTGKPGELTLFSVLPELSQSLGLREQELQVVRASGKESSGLVLLSSCPQTASRLQKYFTHARRAQRPTATYCAVTDGIPAASEGKIQAALKLEHIDGVNLTVPVKAPSRKDILEGVKKTLSHFRVVATGSGCALVQLQPLTVFSSQLQVHMVLQLCPVLGDHMYSARVGTVLGQRFLLPAENNKPQRQVLDEALLRRLHLTPSQAAQLPLHLHLHRLLLPGTRARDTPVELLAPLPPYFSRTLQCLGLRLQ
# Test system: SARS-CoV-2 gRNA
# Format: binding
# Conditions: […]; LC-MS/MS; Probe I sample (first 199 lines of Table 2)
row,Molecule,target (unweighted spectral count of the protein in the RNP capture)
1,B1,37
2,B2,6
3,B3,6
4,B4,7
